T1: GnT-I (Homo sapiens, UniProt P26572)
T1 construct: Ig kappa chain secretory signal (N); made in house; host or cells: HEK293T (transient, secreted into serum-free medium)
T1 sequence (P26572 39-445 limits assumed): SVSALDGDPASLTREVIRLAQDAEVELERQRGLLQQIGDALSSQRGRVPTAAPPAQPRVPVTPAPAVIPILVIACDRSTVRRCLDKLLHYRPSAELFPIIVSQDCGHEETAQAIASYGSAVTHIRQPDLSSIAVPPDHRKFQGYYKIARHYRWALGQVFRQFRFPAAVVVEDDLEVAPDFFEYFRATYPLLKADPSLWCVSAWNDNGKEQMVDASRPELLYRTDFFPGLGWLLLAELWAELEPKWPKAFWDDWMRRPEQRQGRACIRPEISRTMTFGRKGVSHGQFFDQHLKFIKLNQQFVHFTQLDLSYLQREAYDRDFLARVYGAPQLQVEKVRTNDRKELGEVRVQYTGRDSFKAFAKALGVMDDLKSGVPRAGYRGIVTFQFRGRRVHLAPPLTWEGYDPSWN

B1: His-Xpress-sGnT-I: control: solubilized human GnT-I enzyme, 407 amino acids from 39:Ser (protein)
chain: T1 sequence (P26572 39-445 limits assumed)
modifications: left off: small tags and cut ends
notes: control: solubilized human GnT-I enzyme, 407 amino acids from 39:Ser
B2: His-Xpress-sOMGnT(S): solubilized human OMGnT, 414 amino acids 247:Ser to 660:Thr of SEQ ID NO: 2, secreted from HEK293T; plasmid named in Table 3 (protein, listed as Homo sapiens)
chain: SSAEEAECHWADTELNRRRRRFCSKVEGYGSVCSCKDPTPIEFSPDPLPDNKVLNVPVAVIAGNRPNYLYRMLRSLLSAQGVSPQMITVFIDGYYEEPMDVVALFGLRGIQHTPISIKNARVSQHYKASLTATFNLFPEAKFAVVLEEDLDIAVDFFSFLSQSIHLLEEDDSLYCISAWNDQGYEHTAEDPALLYRVETMPGLGWVLRRSLYKEELEPKWPTPEKLWDWDMWMRMPEQRRGRECIIPDVSRSYHFGIVGLNMNGYFHEAYFKKHKFNTVPGVQLRNVDSLKKEAYEVEVHRLLSEAEVLDHSKNPCEDSFLPDTEGHTYVAFIRMEKDDDFTTWTQLAKCLHIWDLDVRGNHRGLWRLFRKKNHFLVVGVPASPYSVKKPPSVTPIFLEPPPKEEGAPGAPEQT
modifications: His-Xpress tag

Legend:
OMGnT = OMGnT activity in serum-free medium of HEK293T cells expressing solubilized enzymes; format: biochemical, human; conditions: serum-free medium of HEK293T transfectants
Description: The enzyme solution was added to 140 mM MES [2-(N-morpholino) ethanesulfonic acid] buffer (pH 7.0) containing 0.4 mM Man-peptide, 0.2 mM UDP-[^3H]GlcNAc (up to 228,000 dpm/nmol), 10 mM MnCl2, 5 mM AMP, 200 mM GlcNAc, 2%(w/v) Triton X-100, 10% glycerol, 2 μg/ml antipain, 2 μg/ml chymostatin, 3 μg/ml pepstatin A, 2 μg/ml leupeptin, 1 mM benzamidine-HCl, and 1 mM PMSF (phenylmethylsulfonyl fluoride) to prepare 50 μl of reaction solution. After the reaction at 37° C. for 3 hours, the reaction was terminated by 3 minutes of boiling. The reaction mixture was then filtered with a filter Ultrafree-MC (Millipore) having a pore size of 0.22 μm to remove solids, and analyzed by Wakopak 5C18-200 column (4.6×250 mm, Wako Pure Chemical Industries, Ltd.). The separation was carried out using concentration gradient with Solution A and Solution B at a flow rate of 1.0 ml/min. […] Peptide detection was carried out at 214 nm, and the radioactivity of each fraction was assayed using a liquid scintillation counter.
Each secretory expression plasmid was transiently expressed in a HEK293T cell derived from human embryonic kidney. Usually, HEK293T cells were cultured in D-MEM (Gibco, #11995-065) containing 10% Fetal Calf Serum (Hyclone), 10 mM MEM Non-Essential Amino Acids solution (Gibco), 2 mM Glutamine (Gibco), and 100 units/ml Penicillin/100 μg/ml Streptomycin (Gibco). In a 6-well plate, 2 μg of plasmid was transfected into 50 to 70% confluent cells by calcium phosphate method. After overnight cultivation, the medium exchange was performed and the cultivation was continued for 48 hours [Pear, W. S., Nolan, G. P., Scott, M. L. and Baltimore, D., Proc. Natl. Acad. Sci. USA, (1993), 90, 8392–8396]. Further, the medium was exchanged with a serum-free medium, and after 48-hour cultivation, the supernatant was collected.
According to the method described in Example 1, OMGnT activity in the serum-free medium was assayed.

GnT-I = target: T1, GnT-I; experiment: GnT-I activity assay of solubilized enzymes; format: biochemical; conditions: method of Reference Example 2
Description: The activity of GnT-1 was assayed with a method by Yoshida et al. [Yoshida, S., Suzuki, M., Yamano, S., Takeuchi, M., Ikenaga, H., Kioka, N., Sakai, H., and Komano, T., Glycobiology, (1999), 9, 53–58] as described below. A 20 μl reaction solution was prepared by adding an enzyme source thereto so as to have a final concentration of 100 mM MES (pH 6.0), 20 mM MnCl2, 5 μM Manα1–6(Manα1–3)Manα1–6(Manα1–3)Manβ1–4GlcNAcβ1–4GlcNAc-PA(M5GN2-PA; Takara Shuzo, PA-Sugar Chain 017), 1 mM UDP-GlcNAc, 100 mM GlcNAc, 5 mM AMP, 1% Triton X-100, and 0.2% BSA. The reaction solution was incubated at 37° C. for 1 hour, and the reaction was terminated in boiling water. Thereafter, the reaction solution was analyzed by a reverse phase HPLC (Cosmosil 5C18-AR column) available from Nacalai Tesque.
When Manα1–6(Manα1–3)Manβ1–4GlcNAcβ1–4GlcNAc-PA (M3GN2-PA; Takara Shuzo, PA-Sugar Chain 016) was used as a sugar receptor, the same method was employed for analysis.

Molecule	OMGnT activity (OMGnT) [pmol/hr/mg protein]	OMGnT activity (in words) (OMGnT)	GnT-I activity (GnT-I) [pmol/hr/ml medium]	GnT-I activity (in words) (GnT-I)
B1	0.4	almost no activity	500	
B2	20	significantly high OMGnT activity		did not exhibit activity at all
